# Measurements: patent publication US20260109761A1 (IP2IPO INNOVATIONS, published 2026)
# How the values were obtained:
# huZIP12-ECD-GST [1] = target: T1, huZIP12-ECD-GST (human, UniProt Q504Y0 24-202); experiment: SPR single cycle kinetics (Biacore): mAb captured on protein A, huZIP12-ECD-GST injected at 3.12-800 nM
# T1 construct: also called hZIP12-ECD-GST; human ZIP12-ECD-GST; not shown: glutathione S-transferase (GST) tag
# Procedure: (§1) Single Cycle Kinetics (SCK) involves first capturing the mAb onto the protein A sensor surface and then sequentially injecting a series of concentrations of huZIP12-ECD-GST over the surface starting at the lowest concentration and ending with the highest concentration. The final concentration is followed by a dissociation phase where buffer only is passed across the surface followed by regeneration, where the remaining bound huZIP12-ECD-GST is removed from the surface by injection of a 10 mM Glycine pH 1.5 and 50 mM NaOH solution. The SCK is repeated for each monoclonal antibody providing duplicate data and the kinetics of each interaction is evaluated by the Biacore software.
# Referring to FIG. 6, there are shown the kinetic parameters obtained for all antibody variants when screened with the 3.12 nM to 800 nM huZIP12-ECD-GST. […] Affinity.
# huZIP12-ECD-GST [2] = target: T1, huZIP12-ECD-GST; experiment: SPR single cycle kinetics (Biacore): mAb captured on protein A, huZIP12-ECD-GST injected at 2.34-600 nM, extended dissociation
# Procedure: as §1
# A selection of the higher affinity antibody variants were re-tested at a lower concentration series with an extended dissociation time with the objective of obtaining a better assessment of the binding kinetics. Referring now to FIG. 7, there are shown the data for the monoclonal antibodies that were re-tested to optimise the binding kinetic data. Once again, three antibody variants, H3_W99H_L1, H3_W99HL2 and H3_W99H_VL-par, all appear to have a higher affinity than the parent antibody. The on-rate (ka), off-rate (kd) and overall affinity measurement (KD) are all improved compared to the 51B12 VH_VL_par parent antibody.
# T1 sequence (Q504Y0 24-202): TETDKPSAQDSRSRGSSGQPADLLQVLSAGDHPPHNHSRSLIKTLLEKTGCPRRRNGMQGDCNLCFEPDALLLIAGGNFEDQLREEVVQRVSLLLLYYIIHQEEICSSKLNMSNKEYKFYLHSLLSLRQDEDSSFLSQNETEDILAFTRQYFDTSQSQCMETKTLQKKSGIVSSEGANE
Kd (huZIP12-ECD-GST [1]) [nM],koff (huZIP12-ECD-GST [1]) [s⁻¹],kon (huZIP12-ECD-GST [1]) [M⁻¹ s⁻¹],Kd (huZIP12-ECD-GST [2]) [nM],koff (huZIP12-ECD-GST [2]) [s⁻¹],kon (huZIP12-ECD-GST [2]) [M⁻¹ s⁻¹],Binder
0.963,2.83e-05,29300,–,–,–,"51B12_VH_L1 (antibody, V domains shown, Fc null human IgG1 / human kappa) VH: QVQLVESGGGVVQPGRSLRLSCAASGFTFSDYGMHWVRQAPGKGLEWVAYISSGGTTIYYADTVKGRFTISRDNSKNTLYLQMNSLRAEDTAVYYCARWTNLYAMDYWGQGTTVTVSS VL: DIVLTQSPDSLAVSLGERATINCRASKSVSTQGYSYMHWYQQKPGQPPKFLIYLASNLESGVPDRFSGSGSGTDFTLTISSLQAEDVAVYYCQHSREVPYTFGGGTKVEIKR"
1.15,3.06e-05,26700,–,–,–,"H2_T63Y_L2 (antibody, V domains shown, Fc null human IgG1 / human kappa) VH: QVQLVESGGGVVQPGRSLRLSCAASGFTFSDYGMHWVRQAPGKGLEWVAYISSGGTTIYYADYVKGRFTISRDNSKNTLYLQMNSLRAEDTAVYYCARWTNLYAMDYWGQGTTVTVSS VL: DIVLTQSPDSLAVSLGERATINCRASKSVSTSGYSYMHWYQQKPGQPPKFLIYLASNKESGVPDRFSGSGSGTDFTLTISSLQAEDVAVYYCQHSREVPYTFGGGTKVEIKR"
1.12,2.86e-05,25600,–,–,–,"51B12_VH_L2 (antibody, V domains shown, Fc null human IgG1 / human kappa) VH: QVQLVESGGGVVQPGRSLRLSCAASGFTFSDYGMHWVRQAPGKGLEWVAYISSGGTTIYYADTVKGRFTISRDNSKNTLYLQMNSLRAEDTAVYYCARWTNLYAMDYWGQGTTVTVSS VL: DIVLTQSPDSLAVSLGERATINCRASKSVSTSGYSYMHWYQQKPGQPPKFLIYLASNKESGVPDRFSGSGSGTDFTLTISSLQAEDVAVYYCQHSREVPYTFGGGTKVEIKR"
1.17,3.42e-05,29100,1.2,3.59e-05,30000,"H2_G66Q_L2 (antibody, V domains shown, Fc null human IgG1 / human kappa) VH: QVQLVESGGGVVQPGRSLRLSCAASGFTFSDYGMHWVRQAPGKGLEWVAYISSGGTTIYYADTVKQRFTISRDNSKNTLYLQMNSLRAEDTAVYYCARWTNLYAMDYWGQGTTVTVSS VL: DIVLTQSPDSLAVSLGERATINCRASKSVSTSGYSYMHWYQQKPGQPPKFLIYLASNKESGVPDRFSGSGSGTDFTLTISSLQAEDVAVYYCQHSREVPYTFGGGTKVEIKR"
1.08,3.72e-05,34400,0.83,2.78e-05,33600,"H2_G66Q_VL-par (antibody, V domains shown, Fc null human IgG1 / human kappa) VH: QVQLVESGGGVVQPGRSLRLSCAASGFTFSDYGMHWVRQAPGKGLEWVAYISSGGTTIYYADTVKQRFTISRDNSKNTLYLQMNSLRAEDTAVYYCARWTNLYAMDYWGQGTTVTVSS VL: DIVLTQSPDSLAVSLGERATINCRASKSVSTSGYSYMHWYQQKPGQPPKFLIYLASNLESGVPDRFSGSGSGTDFTLTISSLQAEDVAVYYCQHSREVPYTFGGGTKVEIKR"
1.61,3.74e-05,23200,–,–,–,"H2_T56H_L2 (antibody, V domains shown, Fc null human IgG1 / human kappa) VH: QVQLVESGGGVVQPGRSLRLSCAASGFTFSDYGMHWVRQAPGKGLEWVAYISSGGHTIYYADTVKGRFTISRDNSKNTLYLQMNSLRAEDTAVYYCARWTNLYAMDYWGQGTTVTVSS VL: DIVLTQSPDSLAVSLGERATINCRASKSVSTSGYSYMHWYQQKPGQPPKFLIYLASNKESGVPDRFSGSGSGTDFTLTISSLQAEDVAVYYCQHSREVPYTFGGGTKVEIKR"
0.968,3.34e-05,34600,–,–,–,"H2_G66Q_L1 (antibody, V domains shown, Fc null human IgG1 / human kappa) VH: QVQLVESGGGVVQPGRSLRLSCAASGFTFSDYGMHWVRQAPGKGLEWVAYISSGGTTIYYADTVKQRFTISRDNSKNTLYLQMNSLRAEDTAVYYCARWTNLYAMDYWGQGTTVTVSS VL: DIVLTQSPDSLAVSLGERATINCRASKSVSTQGYSYMHWYQQKPGQPPKFLIYLASNLESGVPDRFSGSGSGTDFTLTISSLQAEDVAVYYCQHSREVPYTFGGGTKVEIKR"
1.13,2.62e-05,23200,–,–,–,"H2_K65P_L2 (antibody, V domains shown, Fc null human IgG1 / human kappa) VH: QVQLVESGGGVVQPGRSLRLSCAASGFTFSDYGMHWVRQAPGKGLEWVAYISSGGTTIYYADTVPGRFTISRDNSKNTLYLQMNSLRAEDTAVYYCARWTNLYAMDYWGQGTTVTVSS VL: DIVLTQSPDSLAVSLGERATINCRASKSVSTSGYSYMHWYQQKPGQPPKFLIYLASNKESGVPDRFSGSGSGTDFTLTISSLQAEDVAVYYCQHSREVPYTFGGGTKVEIKR"
1.55,4.35e-05,28100,–,–,–,"H3_M105P_L1 (antibody, V domains shown, Fc null human IgG1 / human kappa) VH: QVQLVESGGGVVQPGRSLRLSCAASGFTFSDYGMHWVRQAPGKGLEWVAYISSGGTTIYYADTVKGRFTISRDNSKNTLYLQMNSLRAEDTAVYYCARWTNLYAPDYWGQGTTVTVSS VL: DIVLTQSPDSLAVSLGERATINCRASKSVSTQGYSYMHWYQQKPGQPPKFLIYLASNLESGVPDRFSGSGSGTDFTLTISSLQAEDVAVYYCQHSREVPYTFGGGTKVEIKR"
1.29,3.38e-05,26200,0.591,1.51e-05,25600,"H2_T56H_VL-par (antibody, V domains shown, Fc null human IgG1 / human kappa) VH: QVQLVESGGGVVQPGRSLRLSCAASGFTFSDYGMHWVRQAPGKGLEWVAYISSGGHTIYYADTVKGRFTISRDNSKNTLYLQMNSLRAEDTAVYYCARWTNLYAMDYWGQGTTVTVSS VL: DIVLTQSPDSLAVSLGERATINCRASKSVSTSGYSYMHWYQQKPGQPPKFLIYLASNLESGVPDRFSGSGSGTDFTLTISSLQAEDVAVYYCQHSREVPYTFGGGTKVEIKR"
1.3,3.45e-05,26400,–,–,–,"H2_T56H_L1 (antibody, V domains shown, Fc null human IgG1 / human kappa) VH: QVQLVESGGGVVQPGRSLRLSCAASGFTFSDYGMHWVRQAPGKGLEWVAYISSGGHTIYYADTVKGRFTISRDNSKNTLYLQMNSLRAEDTAVYYCARWTNLYAMDYWGQGTTVTVSS VL: DIVLTQSPDSLAVSLGERATINCRASKSVSTQGYSYMHWYQQKPGQPPKFLIYLASNLESGVPDRFSGSGSGTDFTLTISSLQAEDVAVYYCQHSREVPYTFGGGTKVEIKR"
1.07,3.08e-05,28800,–,–,–,"H2_K65P_L1 (antibody, V domains shown, Fc null human IgG1 / human kappa) VH: QVQLVESGGGVVQPGRSLRLSCAASGFTFSDYGMHWVRQAPGKGLEWVAYISSGGTTIYYADTVPGRFTISRDNSKNTLYLQMNSLRAEDTAVYYCARWTNLYAMDYWGQGTTVTVSS VL: DIVLTQSPDSLAVSLGERATINCRASKSVSTQGYSYMHWYQQKPGQPPKFLIYLASNLESGVPDRFSGSGSGTDFTLTISSLQAEDVAVYYCQHSREVPYTFGGGTKVEIKR"
1.08,2.92e-05,27000,–,–,–,"H2_K65P_VL-par (antibody, V domains shown, Fc null human IgG1 / human kappa) VH: QVQLVESGGGVVQPGRSLRLSCAASGFTFSDYGMHWVRQAPGKGLEWVAYISSGGTTIYYADTVPGRFTISRDNSKNTLYLQMNSLRAEDTAVYYCARWTNLYAMDYWGQGTTVTVSS VL: DIVLTQSPDSLAVSLGERATINCRASKSVSTSGYSYMHWYQQKPGQPPKFLIYLASNLESGVPDRFSGSGSGTDFTLTISSLQAEDVAVYYCQHSREVPYTFGGGTKVEIKR"
0.98,3.78e-05,38600,–,–,–,"H2_T57H_L2 (antibody, V domains shown, Fc null human IgG1 / human kappa) VH: QVQLVESGGGVVQPGRSLRLSCAASGFTFSDYGMHWVRQAPGKGLEWVAYISSGGTHIYYADTVKGRFTISRDNSKNTLYLQMNSLRAEDTAVYYCARWTNLYAMDYWGQGTTVTVSS VL: DIVLTQSPDSLAVSLGERATINCRASKSVSTSGYSYMHWYQQKPGQPPKFLIYLASNKESGVPDRFSGSGSGTDFTLTISSLQAEDVAVYYCQHSREVPYTFGGGTKVEIKR"
1.63,4.03e-05,24700,–,–,–,"H3_M105P_VL-par (antibody, V domains shown, Fc null human IgG1 / human kappa) VH: QVQLVESGGGVVQPGRSLRLSCAASGFTFSDYGMHWVRQAPGKGLEWVAYISSGGTTIYYADTVKGRFTISRDNSKNTLYLQMNSLRAEDTAVYYCARWTNLYAPDYWGQGTTVTVSS VL: DIVLTQSPDSLAVSLGERATINCRASKSVSTSGYSYMHWYQQKPGQPPKFLIYLASNLESGVPDRFSGSGSGTDFTLTISSLQAEDVAVYYCQHSREVPYTFGGGTKVEIKR"

Binder,Kd (huZIP12-ECD-GST [1]) [nM],koff (huZIP12-ECD-GST [1]) [s⁻¹],kon (huZIP12-ECD-GST [1]) [M⁻¹ s⁻¹],Kd (huZIP12-ECD-GST [2]) [nM],koff (huZIP12-ECD-GST [2]) [s⁻¹],kon (huZIP12-ECD-GST [2]) [M⁻¹ s⁻¹]
"H3_M105P_L2 (antibody, V domains shown, Fc null human IgG1 / human kappa) VH: QVQLVESGGGVVQPGRSLRLSCAASGFTFSDYGMHWVRQAPGKGLEWVAYISSGGTTIYYADTVKGRFTISRDNSKNTLYLQMNSLRAEDTAVYYCARWTNLYAPDYWGQGTTVTVSS VL: DIVLTQSPDSLAVSLGERATINCRASKSVSTSGYSYMHWYQQKPGQPPKFLIYLASNKESGVPDRFSGSGSGTDFTLTISSLQAEDVAVYYCQHSREVPYTFGGGTKVEIKR",1.93,4.14e-05,21500,–,–,–
"H2_Y60K_L2 (antibody, V domains shown, Fc null human IgG1 / human kappa) VH: QVQLVESGGGVVQPGRSLRLSCAASGFTFSDYGMHWVRQAPGKGLEWVAYISSGGTTIYKADTVKGRFTISRDNSKNTLYLQMNSLRAEDTAVYYCARWTNLYAMDYWGQGTTVTVSS VL: DIVLTQSPDSLAVSLGERATINCRASKSVSTSGYSYMHWYQQKPGQPPKFLIYLASNKESGVPDRFSGSGSGTDFTLTISSLQAEDVAVYYCQHSREVPYTFGGGTKVEIKR",1.11,4.04e-05,36500,–,–,–
